Laboratory results taken from patent US20260193669A1 (NYKODE THERAPEUTICS ASA, published 2026).

B1: Single chain PreF protein and ferritin (further polypeptide of DNA plasmids IV082 and IV084; also encoded alone by IV080) (other)
chain: QNITEEFYQSTCSAVSKGYLSALRTGWYTSVITIELSNIKENKCNGTDAKVKLIKQELDKYKNAVTELQLLMGSGNVGLGGAIASGVAVCKVLHLEGEVNKIKSALLSTNKAVVSLSNGVSVLTFKVLDLKNYIDKQLLPILNKQSCSISNIETVIEFQQKNNRLLEITREFSVNAGVTTPVSTYMLTNSELLSLINDMPITNDQKKLMSNNVQIVRQQSYSIMCIIKEEVLAYVVQLPLYGVIDTPCWKLHTSPLCTTNTKEGSNICLTRTDRGWYCDNAGSVSFFPQAETCKVQSNRVFCDTMNSRTLPSEVNLCNVDIFNPKYDCKIMTSKTDVSSSVITSLGAIVSCYGKTKCTASNKNRGIIKTFSNGCDYVSNKGVDTVSVGNTLYYVNKQEGKSLYVKGEPIINFYDPLVFPSDEFDASISQVNEKINQSLAFIRKSDELLSGGSSGSSGGSDIIKLLNEQVNKEMQSSNLYMSMSSWCYTHSLDGAGLFLFDHAAEEYEHAKKLIIFLNENNVPVQLTSISAPEHKFEGLTQIFQKAYEHEQHISESINNIVDHAIKCKDHATFNFLQWYVAEQHEEEVLFKDILDKIELIGNENHGLYLADQYVKGIAKSRKSGS
notes: Secreted into supernatant of Expi293F cells; 24-mer by native PAGE; also called further polypeptide (PreF protein)-ferritin nanoparticles, IV082 and IV084
B2: PreF protein and ferritin (further polypeptide of DNA plasmids IV083 and IV085; also encoded alone by IV081) (other)
chain: QNITEEFYQSTCSAVSKGYLSALRTGWYTSVITIELSNIKENKCNGTDAKVKLIKQELDKYKNAVTELQLLMGSGNVGLGGAIASGVAVSKVLHLEGEVNKIKSALLSTNKAVVSLSNGVSVLTFKVLDLKNYIDKQLLPILNKQSCSISNPETVIEFQQKNNRLLEITREFSVNAGVTTPVSTYMLTNSELLSLINDMPITNDQKKLMSNNVQIVRQQSYSIMSIIKEEVLAYVVQLPLYGVIDTPCWKLHTSPLCTTNTKNGSNICLTRTDRGWYCDNAGNVSFFPQAETCKVQSNRVFCDTMNSRTLPSEVNLCNVDIFNPKYDCKIMTSKTDVSSSVITSLGAIVSCYGKTKCTASNKNRGIIKTFSNGCDYVSNKGVDTVSVGNTLYYVNKQEGKSLYVKGEPIINFYDPLVFPSDEFDASISQVNEKINQSLAFINKSDELLSGSGSESQVRQQFSKDIEKLLNEQVNKEMQSSNLYMSMSSWSYTHSLDGAGLFLFDHAAEEYEHAKKLIIFLNENNVPVQLTSISAPEHCFEGLTQIFQKAYEHEQHISESINNIVDHAIKSKDHATFNFLQWYVAEQHEEEVLFKDILDKIELIGNENHGLYLADQYVKGIAKSRKS
notes: Secreted into supernatant of Expi293F cells; 24-mer by native PAGE; also called further polypeptide (PreF protein)-ferritin nanoparticles, IV083 and IV085

Molecular target: the molecule itself
Assay: blue native PAGE and Western blot of supernatant, Motavizumab detection; self-assembly

Protein | binding result
B1 | binds
B2 | binds
